Test results from US20260098072A1, “METHODS OF STIMULATING APPETITE AND/OR INCREASING BODY WEIGHT USING NON-NATURALLY OCCURRING MELANOCORTIN RECEPTOR ANTAGONIST ANALOGS” (Endevica Bio, Inc., priority 2022, published 2026).
Positions of bridges follow the written chain, without caps; N, C: chain ends. Non-standard residues stand in square brackets, D forms with d. No end group written: not given here. d2Nal = N[C@H](Cc1ccc2ccccc2c1)C(=O)O; Nle = CCCC[C@H](N)C(=O)O

B1: C3 (peptide)
peptide: LDPWRWKVP
modifications: lactam 2-7
B2: C6 (peptide)
peptide: VPWRWVP
B3: C7 (peptide)
peptide: LDPWRWKVP
B4: B6 (peptide)
peptide: VPFFRWVP
B5: C5 (peptide)
peptide: IPWRWVP
B6: B7 (peptide)
peptide: LDPFFRWKVP
B7: C1 (peptide)
peptide: Ac-[Nle]DPWRWK[dV][dP]-NH2
modifications: lactam 2-7
SMILES: CCCC[C@H](NC(C)=O)C(=O)N[C@H]1CC(=O)NCCCC[C@@H](C(=O)N[C@@H](C(=O)N2CCC[C@@H]2C(N)=O)C(C)C)NC(=O)[C@H](Cc2c[nH]c3ccccc23)NC(=O)[C@H](CCCNC(=N)N)NC(=O)[C@H](Cc2c[nH]c3ccccc23)NC(=O)[C@@H]2CCCN2C1=O
B8: C4 (peptide)
peptide: LPWRWVP
B9: B8 (peptide)
peptide: IDPFFRWKVP
B10: A2 (peptide)
peptide: Ac-[Nle]P[d2Nal]RW[dV][dP]-NH2
SMILES: CCCC[C@H](NC(C)=O)C(=O)N1CCC[C@H]1C(=O)N[C@H](Cc1ccc2ccccc2c1)C(=O)N[C@@H](CCCNC(=N)N)C(=O)N[C@@H](Cc1c[nH]c2ccccc12)C(=O)N[C@@H](C(=O)N1CCC[C@@H]1C(N)=O)C(C)C
B11: D1 (peptide)
peptide: Ac-[Nle]DPH[d2Nal]RWK[dV][dP]-NH2
modifications: lactam 2-8
SMILES: CCCC[C@H](NC(C)=O)C(=O)N[C@H]1CC(=O)NCCCC[C@@H](C(=O)N[C@@H](C(=O)N2CCC[C@@H]2C(N)=O)C(C)C)NC(=O)[C@H](Cc2c[nH]c3ccccc23)NC(=O)[C@H](CCCNC(=N)N)NC(=O)[C@@H](Cc2ccc3ccccc3c2)NC(=O)[C@H](Cc2c[nH]cn2)NC(=O)[C@@H]2CCCN2C1=O
B12: C9 (peptide)
peptide: VDPWRWKVP
B13: B9 (peptide)
peptide: VDPFFRWKVP
B14: C2 (peptide)
peptide: Ac-LDPWRWKVP-NH2
modifications: lactam 2-7
SMILES: CC(=O)N[C@@H](CC(C)C)C(=O)N[C@H]1CC(=O)NCCCC[C@@H](C(=O)N[C@H](C(=O)N2CCC[C@H]2C(N)=O)C(C)C)NC(=O)[C@H](Cc2c[nH]c3ccccc23)NC(=O)[C@H](CCCNC(=N)N)NC(=O)[C@H](Cc2c[nH]c3ccccc23)NC(=O)[C@@H]2CCCN2C1=O
B15: B5 (peptide)
peptide: IPFFRWVP
B16: C8 (peptide)
peptide: IDPWRWKVP

Columns and labels:
[1] = biological target: T1, human MC4R (Homo sapiens, UniProt P32245); test: cAMP accumulation assay (HTRF), antagonist activity at MC4R; assay type: cell-based; conditions: dose-response fit, MC4R
T1 construct: expressed in transfected cells; host or cells: HEK293/MC4R/CRE-GFP
Method: (§1) The antagonist activity of exemplary non-naturally occurring melanocortin analogs (SEQ ID NOs: 3, 4, 6, 9-11, 14, 15, and 291-309) at the melanocortin 3 receptor (MC3R) and melanocortin 4 (MC4R) receptor was measured via cAMP accumulation assay, according to the following procedure.
(§2) Recombinant cell lines shown in Table 1 were stimulated with melanocortin receptor antagonists and evaluated for cyclic adenosine monophosphate (cAMP) levels as a measurement of receptor activation. cAMP levels were quantified using Homogeneous Time-Resolved Fluorescence (HTRF). The stimulation and CAMP measurement were performed sequentially. First, the compound stimulated the G-protein coupled receptor (GPCR) which then induced downstream signaling, which was measured soon after. Cell lines and stimulated receptors used are detailed in Table 1.
(§3) Twenty-seven exemplary synthetic peptides were tested for antagonist activity at the human MC3R and MC4R at concentrations ranging from 0.1 nM to 1,000 nM. After stimulation, the level of cyclic adenosine monophosphate (CAMP) in each well was quantified via Homogenous Time-Resolved Fluorescence (HTRF) as a measurement of receptor activity. Dose-response curves and estimated IC50 values were then obtained for each antagonist peptide against the MC3R and MC4R. HS024 (TFA) and was used as a positive control for the antagonist activity of MC3R (FIG. 1A) and MC4R (FIG. 1B).

[2] = biological target: T2, human MC3R (Homo sapiens, UniProt P41968); test: cAMP accumulation assay (HTRF), antagonist activity at MC3R; assay type: cell-based; conditions: dose-response fit, MC3R
T2 construct: expressed in transfected cells; host or cells: HEK293/CRE-luc/MC3R
Method: as §1, §2, §3

[3] = biological target: human melanocortin 3 receptor (MC3R) (human, UniProt P41968 1-323); test: cell-based or functional assay
[4] = biological target: human melanocortin 4 receptor (MC4R) (human, UniProt P32245 1-332); test: cell-based or functional assay
Sequence of human melanocortin 4 receptor (MC4R) (P32245 whole entry): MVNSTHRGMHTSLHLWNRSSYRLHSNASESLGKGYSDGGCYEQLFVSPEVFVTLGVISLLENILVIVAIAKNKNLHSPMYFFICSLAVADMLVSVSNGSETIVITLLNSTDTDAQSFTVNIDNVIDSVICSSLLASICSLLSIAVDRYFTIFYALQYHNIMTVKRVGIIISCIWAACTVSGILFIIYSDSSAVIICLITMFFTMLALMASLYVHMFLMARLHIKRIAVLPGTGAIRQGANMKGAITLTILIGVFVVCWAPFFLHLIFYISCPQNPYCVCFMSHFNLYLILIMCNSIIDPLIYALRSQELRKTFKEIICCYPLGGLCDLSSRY

T1 sequence (P32245 whole entry): as above
Sequence of human melanocortin 3 receptor (MC3R) (P41968 whole entry): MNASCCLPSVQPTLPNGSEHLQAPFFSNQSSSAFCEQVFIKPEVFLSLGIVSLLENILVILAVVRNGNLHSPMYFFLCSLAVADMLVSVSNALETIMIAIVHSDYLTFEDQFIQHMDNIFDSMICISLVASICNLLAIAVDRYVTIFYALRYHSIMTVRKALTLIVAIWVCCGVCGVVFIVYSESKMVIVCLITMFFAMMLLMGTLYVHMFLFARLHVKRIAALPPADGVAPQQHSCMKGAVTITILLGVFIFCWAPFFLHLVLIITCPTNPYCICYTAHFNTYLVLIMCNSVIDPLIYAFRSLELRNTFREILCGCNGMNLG
T2 sequence (P41968 whole entry): as above

Molecule	Hill Coefficient [1]	Hill Coefficient [2]	Top (%) [1]	Top (%) [2]	Max Activation % [3]	Max Activation % [4]	IC50 (cAMP by HTRF, antagonist dose-response) [3]	IC50 (cAMP by HTRF, antagonist dose-response) [4]
Ac-Nle-c(Asp-Pro-Phe-Phe-Arg-Trp-Lys)-Dval-Dpro-NH2 (Ac-[Nle]DPFFRWK[dV][dP]-NH2; lactam 2-8; SMILES CCCC[C@H](NC(C)=O)C(=O)N[C@H]1CC(=O)NCCCC[C@@H](C(=O)N[C@@H](C(=O)N2CCC[C@@H]2C(N)=O)C(C)C)NC(=O)[C@H](Cc2c[nH]c3ccccc23)NC(=O)[C@H](CCCNC(=N)N)NC(=O)[C@H](Cc2ccccc2)NC(=O)[C@H](Cc2ccccc2)NC(=O)[C@@H]2CCCN2C1=O) [Peptide B1]	7.57	1.05	–	–	–	–	–	–
Ac-Nle-c(Asp-Pro-Trp-Arg-Trp-Lys)-Dval-Dpro-NH2 (Ac-[Nle]DPWRWK[dV][dP]-NH2; lactam 2-7; SMILES CCCC[C@H](NC(C)=O)C(=O)N[C@H]1CC(=O)NCCCC[C@@H](C(=O)N[C@@H](C(=O)N2CCC[C@@H]2C(N)=O)C(C)C)NC(=O)[C@H](Cc2c[nH]c3ccccc23)NC(=O)[C@H](CCCNC(=N)N)NC(=O)[C@H](Cc2c[nH]c3ccccc23)NC(=O)[C@@H]2CCCN2C1=O) [Peptide C1]	0.08	0.23	51.32%	6.49%	–	–	–	–
IDPFFRWKVP [Peptide B8]	0.49	12.04	20.03%	4.40%	–	–	–	–
IDPWRWKVP [Peptide C8]	10.57	−57.42	–	0.80%	–	–	–	–
IPFFRWVP [Peptide B5]	1.22	−0.76	–	736.17%	–	–	–	–
IPWRWVP [Peptide C5]	1.13	13.82	3.02%	−0.10%	–	–	–	–
LDPFFRWKVP [Peptide B7]	−1.76	−0.84	516.09%	7754.77%	–	–	–	–
LDPWRWKVP [Peptide C7]	1.62	−0.13	4.61%	1.86%	–	–	–	–
LPFFRWVP [Peptide B4]	1.90	0.36	16.60%	29.62%	–	–	–	–
LPWRWVP [Peptide C4]	−7.31	−5.34	−1.97%	–	–	–	–	–
Leu-c(Asp-Pro-Phe-Phe-Arg-Trp-Lys)-Val-Pro (LDPFFRWKVP; lactam 2-8) [Peptide B3]	9.04	1.00	–	100.00%	–	–	–	–
Leu-c(Asp-Pro-Trp-Arg-Trp-Lys)-Val-Pro (LDPWRWKVP; lactam 2-7) [Peptide C3]	0.44	49.34	9.36%	3.18%	–	–	–	–
VDPFFRWKVP [Peptide B9]	−19.71	2.26	−0.55%	1.22%	–	–	–	–
VDPWRWKVP [Peptide C9]	0.64	2.95	219.95%	−64.92%	–	–	–	–
VPFFRWVP [Peptide B6]	0.28	1.62	37.93%	4.27%	–	–	–	–
VPWRWVP [Peptide C6]	2.07	1.00	321.26%	100.00%	–	–	–	–

Molecule	Hill Coefficient [1]	Hill Coefficient [2]	Top (%) [1]	Top (%) [2]	Max Activation % [3]	Max Activation % [4]	IC50 (cAMP by HTRF, antagonist dose-response) [3]	IC50 (cAMP by HTRF, antagonist dose-response) [4]
B1	–	–	–	–	3.32%	8.07%	–	–
B2	–	–	–	–	-0.8%	6.41%	–	–
B3	–	–	–	–	0.16%	5.86%	–	–
B4	–	–	–	–	5%	15.4%	–	–
B5	–	–	–	–	-0.49%	2.47%	–	–
B6	–	–	–	–	1.43%	-2.96%	–	–
B7	–	–	–	–	4.55%	11.1%	–	–
B8	–	–	–	–	-0.32%	-6.88%	–	–
B9	–	–	–	–	4.86%	13.6%	–	–
B10	–	–	–	–	7.92%	–	–	–
B11	–	–	–	–	74.5%	49.4%	5.81 µM	> 10 µM
B12	–	–	–	–	1.24%	5.89%	–	–
B13	–	–	–	–	1.08%	-3.71%	–	–
B14	–	–	–	–	0.27%	-3.3%	–	–
B15	–	–	–	–	0.14%	-0.16%	–	–
B16	–	–	–	–	0.47%	3.02%	–	–
